Test results as given in article PMC10696123 (iScience, 2023).

Columns and labels:
FleR 1-473 [1] = biological target: FleR 1-473 (UniProt Q9I4N3); experiment: dynamic light scattering; conditions: reference: wild type FleRFL, acetyl phosphate treated; sites D53
FleR 1-473 [2] = biological target: FleR 1-473 (UniProt Q9I4N3); experiment: small-angle X-ray scattering; conditions: reference: non-phosphorylated FleR D53A; sites D53
SAXS = biological target: the molecule itself; experiment: SAXS
cross-linking = biological target: the molecule itself; experiment: cross-linking

**Q.** “FleR 1-473 (from UniProt Q9I4N3) FleR D53A, acetyl phosphate treated” was tested. Which “other: hydrodynamic diameter” value (FleR 1-473 [1]) did it give?
**A.** The value was “weaker; reference 23.17 ± 0.58”.

**Q.** Which “other: SAXS molecular mass (Bayesian inference)” value (FleR 1-473 [2]) does the source give for “FleR 1-473 (from UniProt Q9I4N3) acetyl phosphate-phosphorylated FleR S150F” here?
**A.** The value was “stronger; reference 113650”.

B1: FleR D53A, non-phosphorylated, full length (natural protein, Pseudomonas aeruginosa (PAO1 strain), UniProt Q9I4N3 1-473, looked up)
chain: MAAKVLLVEDDRALREALSDTLLLGGHEFVAVDSAEAALPVLAREAFSLVISAVNMPGMDGHQLLGLIRTRYPHLPVLLMTAYGAVDRAVEAMRQGAADYLVKPFEARALLDLVARHALGQLPGSEEDGPVALEPASRQLLELAARVARSDSTVLISGESGTGKEVLANYIHQQSPRAGKPFIAINCAAIPDNMLEATLFGHEKGSFTGAIAAQPGKFELADGGTILLDEISEMPLGLQAKLLRVLQEREVERVGARKPINLDIRVLATTNRDLAAEVAAGRFREDLYYRLSVFPLAWRPLRERPADILPLAERLLRKHSRKMNLGAVALGPEAAQCLVRHAWPGNVRELDNAIQRALILQQGGLIQPADLCLTAPIGMPLAAPVPVPMPAMPPATPPSVEIPSPAAGQDASGALGDDLRRREFQVIIDTLRTERGRRKEAAERLGISPRTLRYKLAQMRDAGMDVEAYLYAI
**Q.** Which “stoichiometry N” value (SAXS) does the source give for B1 here?
**A.** Its value is 2.

B2: FleR S150F, full length, phosphorylated with acetyl phosphate (natural protein, Pseudomonas aeruginosa (PAO1 strain), UniProt Q9I4N3 1-473, looked up)
chain: MAAKVLLVEDDRALREALSDTLLLGGHEFVAVDSAEAALPVLAREAFSLVISDVNMPGMDGHQLLGLIRTRYPHLPVLLMTAYGAVDRAVEAMRQGAADYLVKPFEARALLDLVARHALGQLPGSEEDGPVALEPASRQLLELAARVARFDSTVLISGESGTGKEVLANYIHQQSPRAGKPFIAINCAAIPDNMLEATLFGHEKGSFTGAIAAQPGKFELADGGTILLDEISEMPLGLQAKLLRVLQEREVERVGARKPINLDIRVLATTNRDLAAEVAAGRFREDLYYRLSVFPLAWRPLRERPADILPLAERLLRKHSRKMNLGAVALGPEAAQCLVRHAWPGNVRELDNAIQRALILQQGGLIQPADLCLTAPIGMPLAAPVPVPMPAMPPATPPSVEIPSPAAGQDASGALGDDLRRREFQVIIDTLRTERGRRKEAAERLGISPRTLRYKLAQMRDAGMDVEAYLYAI
modifications: phosphorylated by acetyl phosphate (site D53)
**Q.** How did the “stoichiometry N” value (SAXS) turn out when B2 was run?
**A.** Its value is 7.

B3: DNA-binding domain of FleR (FleRDBD, residues 412-473) (domain or fragment, Pseudomonas aeruginosa (PAO1 strain), UniProt Q9I4N3 412-473, looked up)
chain: SGALGDDLRRREFQVIIDTLRTERGRRKEAAERLGISPRTLRYKLAQMRDAGMDVEAYLYAI
**Q.** How did the “stoichiometry N” value (cross-linking) turn out when B3 was run?
**A.** Its value is 2.
